B1: C130 (antibody, V domains shown)
VH: QVQLVQSGAEVKKPGASVKVSCKASGYTFTNYYMHWVRQAPGQGLEWMGIINPSGGSTGYAQKFQGRVTMTRDTSTSTVYMELSSLRSEDTAVYYCARSRPTPDWYFDLWGRGTLVTVSS
VL: SYELTQPPSVSVAPGKTARITCGGNNIGSKSVHWYQQKPGQAPVLVIYYDSDRPSGIPERFSGSNSGNTATLTISRVEAGDEADYYCQVWDSSSDHPGVVFGGGTKLTVL
B2: C008 (antibody, V domains shown)
VH: EVQLVESGGGVVQPGRSLRLSCAASGFTFSSYGMHWVRQAPGKGLEWVTVISYDGRNKYYADSVKGRFTISRDNSKNTLYLQMNSLRAEDTAVYYCAREFGDPEWYFDYWGQGTLVTVSS
VL: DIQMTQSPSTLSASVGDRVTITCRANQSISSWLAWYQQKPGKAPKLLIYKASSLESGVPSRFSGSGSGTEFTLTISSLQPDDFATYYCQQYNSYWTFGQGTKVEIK
B3: C215 (antibody, V domains shown)
VH: EVQLLESGGGLVQPGGSLRLSCAASGFTFSSYAMSWVRQAPGKGLEWVSAITDSGDGTFYADSVKGRFTISRDNSKNTLYLQMNSLRAEDTAVYYCASEEDYSNYVGWFDPWGQGTLVTVSS
VL: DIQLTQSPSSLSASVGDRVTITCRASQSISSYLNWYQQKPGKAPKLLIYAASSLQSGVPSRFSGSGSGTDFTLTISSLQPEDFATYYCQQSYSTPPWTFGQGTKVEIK
B4: C211 (antibody, V domains shown)
VH: EVQLVESGGGLVQPGGSLRLSCAASEFTVSSNYMSWVRQAPGKGLEWVSVIYSGGSTFYADSVKGRFTISRDNSKNTLYLQMNSLRPEDTAVYYCARDYGDFYFDFWGQGTLVTVSS
VL: EIVMTQSPATLSVSPGERATLSCRASQSVSSNLAWYQQKPGQGPRLLIYGASTRATGIPARFSGSGSGTEFTLTISSLQSEDFAVYYCQQYNNWPRTFGQGTKVEIK
B5: C138 (antibody, V domains shown)
VH: EVQLVESGGGLVQPGGSLRLSCAASGFTFSTYWMSWVRQPPGKGLEWVANIKQDGSEKYYVDSVKGRFTISRDNAKNSLYLQMNSLRADDTAVYYCAGGTWLRSSFDYWGQGTLVTVSS
VL: NFMLTQPHSVSESPGKTVTISCTGSSGSIASNYVQWYQQRPGSAPTTVIYEDNQRPSGVPDRFSGSIDSSSNSASLTISGLKTEDEADYYCQSYDSSNWVFGGGTKLTVL
B6: C103 (antibody, V domains shown)
VH: QVQLQQWGAGLLKPSETLSLTCAVSGGSLSGFYWTWIRQPPGKGLEWIGETNHFGSTGYKPSLKSRVTISVDMSRNQFSLKVTSVTAADTAVYYCARKPLLYSDFSPGAFDIWGQGTMVTVSS
VL: EIVLTQSPGTLSLSPGERATLSCRASQTVTANYLAWYQQKPGQAPRLLIYGASKRATGIPDRFSGSGSGTDFTLSISRLEPEDFAVYYCQQYTTTPRTFGGGTKVEIK
B7: C104 (antibody, V domains shown)
VH: QVQLQQWGAGLLKPSETLSLSCAVYGGSLSGYYWSWIRQPPGKGLEWIGEINHFGSTGYNPSLKSRVTISVDTSKSQFSVKLSSVTAADTAVYYCARKPLLYSNLSPGAFDIWGQGTMVTVSS
VL: B6 VL with L11V, R24W, T28S, T30S, N32S, K54S, S75T, T93G

Substitutions are numbered along the chain they refer to.

In the first experiment the target is SARS-CoV RBD (SARS-CoV, UniProt P59594). The experiment can be described thus: ELISA. On the technique in general: In an ELISA, binding on a coated surface is turned into a signal by an enzyme label.
A word on the EC50: it is the midpoint of the concentration-response curve. A lower EC50 goes with greater potency. B1 had an EC50 of more than 1000 ng/mL.
On the same count and under the same terms, with B2 the figure was more than 1000 ng/mL; with B3, 17.9 ng/mL; with B4, more than 1000 ng/mL.
The molecule B5 displayed an EC50 of more than 1000 ng/mL.
Molecule B6 had an EC50 of more than 1000 ng/mL.
B7 displayed an EC50 of more than 1000 ng/mL.

In another experiment the target is SARS-CoV-2 RBD (SARS-CoV-2, UniProt P0DTC2). The experiment in a line: ELISA.
Turning to B1, the EC50 came out at 2.05 ng/mL.
In the case of B2, the 50% effective concentration (EC50) is 4.63 ng/mL.
Take B3: a half-maximal effect (EC50) was put at 5.33 ng/mL.
Turning to B4, the EC50 was 2.82 ng/mL.
In the case of B5, the EC50 stood at 2.94 ng/mL.
The same measure, in the same setting: with B6 the figure was 3.77 ng/mL; with B7, 8.31 ng/mL.

The record behind these values is patent US11634477 (dated 2023).
